Legend:
Assay in all cases: Retrogenix cell microarray, fixed HEK293 cells
[1] = target: T1, full-length human UNC5D on fixed HEK293 cells (Retrogenix panel) (human, UniProt Q6UXZ4 33-953)
T1 construct: whole, on cells
T1 sequence (looked up): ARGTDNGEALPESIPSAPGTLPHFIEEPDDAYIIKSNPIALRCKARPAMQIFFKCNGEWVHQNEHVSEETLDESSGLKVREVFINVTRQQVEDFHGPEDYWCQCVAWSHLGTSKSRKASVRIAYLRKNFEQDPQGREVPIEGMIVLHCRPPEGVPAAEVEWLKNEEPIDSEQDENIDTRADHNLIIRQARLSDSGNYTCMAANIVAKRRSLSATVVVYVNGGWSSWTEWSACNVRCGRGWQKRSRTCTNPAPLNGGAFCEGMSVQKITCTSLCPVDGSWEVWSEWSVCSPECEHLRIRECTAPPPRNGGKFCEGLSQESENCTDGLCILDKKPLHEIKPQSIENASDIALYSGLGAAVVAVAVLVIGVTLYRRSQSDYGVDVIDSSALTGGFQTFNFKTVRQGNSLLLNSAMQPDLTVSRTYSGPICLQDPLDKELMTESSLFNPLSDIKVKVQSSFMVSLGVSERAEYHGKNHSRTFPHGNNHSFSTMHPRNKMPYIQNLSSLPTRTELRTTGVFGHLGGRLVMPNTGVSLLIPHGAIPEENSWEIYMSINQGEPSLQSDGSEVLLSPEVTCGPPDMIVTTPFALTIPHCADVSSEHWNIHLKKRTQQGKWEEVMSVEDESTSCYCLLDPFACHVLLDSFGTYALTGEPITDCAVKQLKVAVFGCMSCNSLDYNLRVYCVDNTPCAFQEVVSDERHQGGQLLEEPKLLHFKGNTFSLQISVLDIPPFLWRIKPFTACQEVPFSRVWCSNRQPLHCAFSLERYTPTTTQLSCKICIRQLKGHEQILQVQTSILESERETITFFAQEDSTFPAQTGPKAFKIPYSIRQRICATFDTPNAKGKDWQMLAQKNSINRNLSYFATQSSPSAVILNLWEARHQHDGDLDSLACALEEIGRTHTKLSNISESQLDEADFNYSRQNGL

[2] = target: T2, full-length human NEO1 on fixed HEK293 cells (Retrogenix panel) (human, UniProt Q92859 34-1461)
T2 construct: whole, on cells; also called neogenin
T2 sequence (looked up): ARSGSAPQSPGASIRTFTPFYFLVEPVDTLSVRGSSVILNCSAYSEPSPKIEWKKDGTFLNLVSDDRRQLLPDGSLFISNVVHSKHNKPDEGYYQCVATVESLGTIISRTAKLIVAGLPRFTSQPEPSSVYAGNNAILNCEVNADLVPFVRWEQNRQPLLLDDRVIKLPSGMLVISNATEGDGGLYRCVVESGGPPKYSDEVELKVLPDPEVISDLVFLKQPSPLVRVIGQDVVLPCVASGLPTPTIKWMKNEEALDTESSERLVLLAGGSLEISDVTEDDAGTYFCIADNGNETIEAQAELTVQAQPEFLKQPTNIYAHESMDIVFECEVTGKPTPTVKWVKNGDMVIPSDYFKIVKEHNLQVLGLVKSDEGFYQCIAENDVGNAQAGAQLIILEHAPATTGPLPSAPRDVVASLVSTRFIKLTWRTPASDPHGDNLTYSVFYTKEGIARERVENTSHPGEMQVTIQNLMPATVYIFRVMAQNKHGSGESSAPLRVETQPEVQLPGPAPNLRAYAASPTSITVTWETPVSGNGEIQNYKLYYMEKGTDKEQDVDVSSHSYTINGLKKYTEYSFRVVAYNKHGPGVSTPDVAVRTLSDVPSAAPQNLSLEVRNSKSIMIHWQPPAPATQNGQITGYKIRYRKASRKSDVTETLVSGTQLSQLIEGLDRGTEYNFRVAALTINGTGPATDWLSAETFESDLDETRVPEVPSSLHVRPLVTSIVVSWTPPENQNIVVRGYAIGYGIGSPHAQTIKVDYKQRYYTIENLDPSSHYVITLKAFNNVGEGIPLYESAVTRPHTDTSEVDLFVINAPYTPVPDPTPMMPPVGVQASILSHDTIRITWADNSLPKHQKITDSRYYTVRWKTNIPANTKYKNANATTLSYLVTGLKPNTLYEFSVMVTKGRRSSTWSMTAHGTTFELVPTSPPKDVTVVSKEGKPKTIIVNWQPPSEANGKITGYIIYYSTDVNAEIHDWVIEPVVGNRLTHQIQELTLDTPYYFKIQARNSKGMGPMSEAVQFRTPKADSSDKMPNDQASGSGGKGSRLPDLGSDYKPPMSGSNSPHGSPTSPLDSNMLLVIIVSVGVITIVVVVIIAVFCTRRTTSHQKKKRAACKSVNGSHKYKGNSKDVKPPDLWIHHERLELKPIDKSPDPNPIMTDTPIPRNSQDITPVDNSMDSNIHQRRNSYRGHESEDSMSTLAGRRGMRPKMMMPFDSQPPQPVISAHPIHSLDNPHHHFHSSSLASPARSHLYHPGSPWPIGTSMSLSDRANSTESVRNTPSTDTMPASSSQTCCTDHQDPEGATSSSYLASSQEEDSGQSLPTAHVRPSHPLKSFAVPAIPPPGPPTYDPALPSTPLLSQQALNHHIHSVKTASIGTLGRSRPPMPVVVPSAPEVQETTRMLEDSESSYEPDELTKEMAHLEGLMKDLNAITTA

[3] = target: T3, full-length human DCC on fixed HEK293 cells (Retrogenix panel) (human, UniProt P43146 26-1447)
T3 construct: whole, on cells
T3 sequence (P43146 26-1447): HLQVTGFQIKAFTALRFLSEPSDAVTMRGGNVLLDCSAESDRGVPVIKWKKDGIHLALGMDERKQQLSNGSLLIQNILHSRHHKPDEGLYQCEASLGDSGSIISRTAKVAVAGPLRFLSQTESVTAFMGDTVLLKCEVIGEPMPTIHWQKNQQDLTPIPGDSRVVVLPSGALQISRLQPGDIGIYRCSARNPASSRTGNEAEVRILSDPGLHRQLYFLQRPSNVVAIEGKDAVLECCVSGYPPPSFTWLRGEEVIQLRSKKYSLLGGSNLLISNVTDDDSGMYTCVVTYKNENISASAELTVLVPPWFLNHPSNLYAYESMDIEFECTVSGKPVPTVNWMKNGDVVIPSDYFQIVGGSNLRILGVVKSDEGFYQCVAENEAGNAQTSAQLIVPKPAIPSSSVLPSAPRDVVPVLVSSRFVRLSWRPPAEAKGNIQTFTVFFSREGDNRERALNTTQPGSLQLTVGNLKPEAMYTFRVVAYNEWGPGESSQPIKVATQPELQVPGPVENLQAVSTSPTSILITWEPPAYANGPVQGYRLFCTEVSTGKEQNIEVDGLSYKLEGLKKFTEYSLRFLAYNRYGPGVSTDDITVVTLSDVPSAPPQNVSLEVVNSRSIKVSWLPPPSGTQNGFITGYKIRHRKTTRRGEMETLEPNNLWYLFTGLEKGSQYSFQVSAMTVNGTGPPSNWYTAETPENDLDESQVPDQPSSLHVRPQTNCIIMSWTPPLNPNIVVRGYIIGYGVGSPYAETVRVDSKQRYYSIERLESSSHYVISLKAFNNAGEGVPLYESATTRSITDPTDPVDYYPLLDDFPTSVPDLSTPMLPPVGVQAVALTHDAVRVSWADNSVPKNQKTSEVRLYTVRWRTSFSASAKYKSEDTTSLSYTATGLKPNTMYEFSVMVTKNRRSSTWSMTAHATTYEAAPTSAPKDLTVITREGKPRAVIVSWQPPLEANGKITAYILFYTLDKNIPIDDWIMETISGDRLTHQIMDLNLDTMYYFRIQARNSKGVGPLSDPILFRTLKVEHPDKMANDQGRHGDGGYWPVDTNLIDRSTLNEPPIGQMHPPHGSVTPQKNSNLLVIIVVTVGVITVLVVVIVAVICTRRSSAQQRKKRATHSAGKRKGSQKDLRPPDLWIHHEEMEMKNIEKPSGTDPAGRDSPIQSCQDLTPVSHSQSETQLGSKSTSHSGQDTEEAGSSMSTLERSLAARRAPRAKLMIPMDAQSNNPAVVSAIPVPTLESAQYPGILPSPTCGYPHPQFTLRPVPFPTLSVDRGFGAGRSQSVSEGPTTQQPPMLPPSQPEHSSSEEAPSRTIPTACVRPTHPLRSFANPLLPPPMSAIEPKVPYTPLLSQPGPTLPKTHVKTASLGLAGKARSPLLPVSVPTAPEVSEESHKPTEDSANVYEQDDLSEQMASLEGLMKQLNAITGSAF

[4] = target: T4, full-length human DSCAM on fixed HEK293 cells (Retrogenix panel) (human, UniProt O60469 18-2012)
T4 construct: whole, on cells
T4 sequence (O60469 18-2012): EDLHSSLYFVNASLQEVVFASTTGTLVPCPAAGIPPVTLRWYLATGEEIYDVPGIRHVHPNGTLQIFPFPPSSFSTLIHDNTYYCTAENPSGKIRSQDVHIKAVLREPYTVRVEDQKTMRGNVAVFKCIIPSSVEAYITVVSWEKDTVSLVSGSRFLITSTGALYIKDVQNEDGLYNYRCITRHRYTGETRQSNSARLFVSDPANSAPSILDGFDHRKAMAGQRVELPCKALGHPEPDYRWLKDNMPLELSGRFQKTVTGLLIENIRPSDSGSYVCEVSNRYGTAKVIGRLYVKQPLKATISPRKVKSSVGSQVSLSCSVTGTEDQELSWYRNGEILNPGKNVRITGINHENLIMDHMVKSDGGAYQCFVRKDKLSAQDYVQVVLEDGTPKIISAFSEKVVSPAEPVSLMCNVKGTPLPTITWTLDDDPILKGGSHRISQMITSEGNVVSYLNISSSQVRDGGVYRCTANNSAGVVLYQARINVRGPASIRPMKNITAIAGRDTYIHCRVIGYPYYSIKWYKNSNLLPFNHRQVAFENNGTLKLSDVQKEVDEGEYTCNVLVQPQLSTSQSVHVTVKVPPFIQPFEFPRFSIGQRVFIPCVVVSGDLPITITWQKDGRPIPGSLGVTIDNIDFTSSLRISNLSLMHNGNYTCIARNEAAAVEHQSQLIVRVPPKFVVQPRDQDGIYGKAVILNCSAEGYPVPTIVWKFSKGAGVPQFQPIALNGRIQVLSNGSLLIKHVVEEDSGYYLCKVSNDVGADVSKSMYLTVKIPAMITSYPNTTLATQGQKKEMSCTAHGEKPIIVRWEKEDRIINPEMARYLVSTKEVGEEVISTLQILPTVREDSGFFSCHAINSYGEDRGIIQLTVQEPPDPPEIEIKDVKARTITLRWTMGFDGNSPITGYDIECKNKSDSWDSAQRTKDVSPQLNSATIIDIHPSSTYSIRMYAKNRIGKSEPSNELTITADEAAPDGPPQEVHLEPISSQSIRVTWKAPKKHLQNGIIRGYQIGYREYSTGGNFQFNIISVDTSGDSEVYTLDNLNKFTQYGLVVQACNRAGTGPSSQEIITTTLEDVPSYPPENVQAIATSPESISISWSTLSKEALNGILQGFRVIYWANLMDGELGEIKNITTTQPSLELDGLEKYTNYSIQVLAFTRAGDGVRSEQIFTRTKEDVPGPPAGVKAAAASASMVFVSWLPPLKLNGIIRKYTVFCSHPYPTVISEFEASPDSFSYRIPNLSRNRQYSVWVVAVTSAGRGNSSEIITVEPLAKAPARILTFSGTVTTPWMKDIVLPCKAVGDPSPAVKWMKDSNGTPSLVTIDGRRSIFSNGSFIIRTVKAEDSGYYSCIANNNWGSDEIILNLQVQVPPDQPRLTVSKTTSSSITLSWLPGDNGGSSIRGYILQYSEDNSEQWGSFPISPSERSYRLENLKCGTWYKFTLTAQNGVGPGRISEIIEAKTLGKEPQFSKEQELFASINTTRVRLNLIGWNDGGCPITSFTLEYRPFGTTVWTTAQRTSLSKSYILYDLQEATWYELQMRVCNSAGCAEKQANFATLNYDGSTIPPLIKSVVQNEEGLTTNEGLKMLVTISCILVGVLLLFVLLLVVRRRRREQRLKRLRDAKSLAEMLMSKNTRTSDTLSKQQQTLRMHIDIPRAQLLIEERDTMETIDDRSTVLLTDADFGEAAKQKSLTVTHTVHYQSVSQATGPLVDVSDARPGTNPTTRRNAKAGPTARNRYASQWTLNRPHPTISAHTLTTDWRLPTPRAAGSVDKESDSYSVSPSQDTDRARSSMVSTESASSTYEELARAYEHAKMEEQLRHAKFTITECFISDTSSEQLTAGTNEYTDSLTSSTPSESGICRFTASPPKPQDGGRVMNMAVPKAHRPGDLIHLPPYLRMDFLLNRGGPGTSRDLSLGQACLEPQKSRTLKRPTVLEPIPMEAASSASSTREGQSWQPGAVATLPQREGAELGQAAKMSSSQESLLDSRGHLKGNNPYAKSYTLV

Measured: binding result

B1: ATL_0006178 (antibody, IgG1, V domains shown)
VH: QVQLQESGPGLVKPSETLSLTCTVSGGSISSYFWSWIRQPPGKGLEWIGYIHYSGTTNQNPSLKSRVTISVDKSKNQFSLKLSSVTAADTAVYYCARGRGMATLPFDYWGQGTLVTVSS
VL: not shown
notes: Combination variant of ATL_5262 (T82K, Q67 kept, N58Y); also called ATL_6178; ATL6178
no binding: all assays above

Reference: patent US20240228604A1 (ALCHEMAB THERAPEUTICS, published 2024)
